Read-outs that look alike come from different tables or passages of the source.
Assays:
[1] = biological target: Corynebacterium mustelae E2p catalytic domain (CmE2p_CD) (Corynebacterium mustelae); experiment: crystal structure
AUC [2] = biological target: the molecule itself; experiment: AUC
AUC [3] = biological target: the molecule itself; experiment: AUC; remark: listed apart in the source
crystal structure = biological target: the molecule itself; experiment: crystal structure

Corynebacterium mustelae E2p catalytic domain (CmE2p_CD) (domain or fragment)
stoichiometry N [1]: 3

B1: M. tuberculosis E2b, full-length (MtE2b_FL) (enzyme)
chain: MSGEDSIRSFPVPDLGEGLQEVTVTCWSVAVGDDVEINQTLCSVETAKAEVEIPSPYAGRIVELGGAEGDVLKVGAELVRIDTGPTAVAQPNGEGAVPTLVGYGADTAIETSRRTSRPLAAPVVRKLAKELAVDLAALQRGSGAGGVITRADVLAAARGGVGAGPDVRPVHGVHARMAEKMTLSHKEIPTAKASVEVICAELLRLRDRFVSAAPEITPFALTLRLLVIALKHNVILNSTWVDSGEGPQVHVHRGVHLGFGAATERGLLVPVVTDAQDKNTRELASRVAELITGAREGTLTPAELRGSTFTVSNFGALGVDDGVPVINHPEAAILGLGAIKPRPVVVGGEVVARPTMTLTCVFDHRVVDGAQVAQFMCELRDLIESPETALLDL
stoichiometry N (AUC [2]): 24

B2: C. glutamicum E2p catalytic domain (CgE2p_CD) (domain or fragment)
chain: LRGTTQKVNRIREITAMKTVEALQISAQLTQLHEVDMTRVAELRKKNKPAFIEKHGVNLTYLPFFVKAVVEALVSHPNVNASFNAKTKEMTYHSSVNLSIAVDTPAGLLTPVIHDAQDLSIPEIAKAIVDLADRSRNNKLKPNDLSGGTFTITNIGSEGALSDTPILVPPQAGILGTGAIVKRPVVITEDGIDSIAIRQMVFLPLTYDHQVVDGADAGRFLTTIKDRLETANFEGDLQL
stoichiometry N (AUC [3]): 3

B3: C. glutamicum E2p, full-length (CgE2p_FL) (enzyme)
chain: MAFSVEMPELGESVTEGTITQWLKSVGDTVEVDEPLLEVSTDKVDTEIPSPVAGVILEIKAEEDDTVDVGGVIAIIGDADETPANEAPADEAPAPAEEEEPVKEEPKKEAAPEAPAATGAATDVEMPELGESVTEGTITQWLKAVGDTVEVDEPLLEVSTDKVDTEIPSPVAGTIVEILADEDDTVDVGAVIARIGDANAAAAPAEEEAAPAEEEEPVKEEPKKEAAPEAPAATGAATDVEMPELGESVTEGTITQWLKAVGDTVEVDEPLLEVSTDKVDTEIPSPVAGTIVEILADEDDTVDVGAVIARIGDANAAAAPAEEEAAPAEEEEPVKEEPKKEEPKKEEPKKEAATTPAAASATVSASGDNVPYVTPLVRKLAEKHGVDLNTVTGTGIGGRIRKQDVLAAANGEAAPAEAAAPVSAWSTKSVDPEKAKLRGTTQKVNRIREITAMKTVEALQISAQLTQLHEVDMTRVAELRKKNKPAFIEKHGVNLTYLPFFVKAVVEALVSHPNVNASFNAKTKEMTYHSSVNLSIAVDTPAGLLTPVIHDAQDLSIPEIAKAIVDLADRSRNNKLKPNDLSGGTFTITNIGSEGALSDTPILVPPQAGILGTGAIVKRPVVITEDGIDSIAIRQMVFLPLTYDHQVVDGADAGRFLTTIKDRLETANFEGDLQL
stoichiometry N (AUC [3]): 3

B4: C. glutamicum E2p catalytic core and peripheral subunit binding domain (CgE2p-ΔLBDs) (domain or fragment)
chain: YVTPLVRKLAEKHGVDLNTVTGTGIGGRIRKQDVLAAANGEAAPAEAAAPVSAWSTKSVDPEKAKLRGTTQKVNRIREITAMKTVEALQISAQLTQLHEVDMTRVAELRKKNKPAFIEKHGVNLTYLPFFVKAVVEALVSHPNVNASFNAKTKEMTYHSSVNLSIAVDTPAGLLTPVIHDAQDLSIPEIAKAIVDLADRSRNNKLKPNDLSGGTFTITNIGSEGALSDTPILVPPQAGILGTGAIVKRPVVITEDGIDSIAIRQMVFLPLTYDHQVVDGADAGRFLTTIKDRLETANFEGDLQL
binding result (crystal structure): binds

Reference: doi:10.1101/2020.07.24.212647 (bioRxiv, 2020)
